The target of data set [1] is 'live' C3 (C3 with an intact thiol ester bond), P01024.
Data set [2] deals with T1, C1r CCP1-CCP2-SP S654A, P00736.
T1 chain: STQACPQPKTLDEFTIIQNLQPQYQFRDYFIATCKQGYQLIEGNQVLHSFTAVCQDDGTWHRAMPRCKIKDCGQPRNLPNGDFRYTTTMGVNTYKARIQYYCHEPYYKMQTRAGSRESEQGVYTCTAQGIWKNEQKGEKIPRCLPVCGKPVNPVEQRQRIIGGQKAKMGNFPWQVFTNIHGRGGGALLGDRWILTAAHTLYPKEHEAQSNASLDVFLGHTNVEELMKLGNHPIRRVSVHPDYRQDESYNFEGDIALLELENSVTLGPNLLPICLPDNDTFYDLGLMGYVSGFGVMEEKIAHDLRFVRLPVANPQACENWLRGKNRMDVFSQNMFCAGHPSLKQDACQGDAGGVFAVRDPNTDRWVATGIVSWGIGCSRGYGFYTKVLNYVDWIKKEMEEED

The target of data set [3] is T2, C1r CCP2-SP S654A, P00736.
T2 chain: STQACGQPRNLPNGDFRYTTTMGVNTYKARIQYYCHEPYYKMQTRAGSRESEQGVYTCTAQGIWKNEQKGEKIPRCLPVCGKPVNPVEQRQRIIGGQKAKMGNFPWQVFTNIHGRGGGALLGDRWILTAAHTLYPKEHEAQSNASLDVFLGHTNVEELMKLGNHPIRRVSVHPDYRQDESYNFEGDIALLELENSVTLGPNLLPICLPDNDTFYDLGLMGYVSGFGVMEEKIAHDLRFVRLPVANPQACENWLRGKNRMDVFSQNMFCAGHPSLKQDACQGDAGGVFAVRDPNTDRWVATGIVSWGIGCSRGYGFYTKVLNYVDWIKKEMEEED

Another data set has as its target T3, C1r SP S654A, P00736.
T3 chain: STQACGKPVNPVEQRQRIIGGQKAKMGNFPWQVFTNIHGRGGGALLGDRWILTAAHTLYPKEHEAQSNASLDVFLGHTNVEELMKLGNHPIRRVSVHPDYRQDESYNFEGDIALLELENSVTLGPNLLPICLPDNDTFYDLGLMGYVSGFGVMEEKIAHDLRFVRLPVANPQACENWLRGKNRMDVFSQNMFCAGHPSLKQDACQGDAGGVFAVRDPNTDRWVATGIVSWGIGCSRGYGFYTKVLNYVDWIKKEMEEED

Another data set concerns the target T4, Proenzyme C1s, P09871.
T4 chain: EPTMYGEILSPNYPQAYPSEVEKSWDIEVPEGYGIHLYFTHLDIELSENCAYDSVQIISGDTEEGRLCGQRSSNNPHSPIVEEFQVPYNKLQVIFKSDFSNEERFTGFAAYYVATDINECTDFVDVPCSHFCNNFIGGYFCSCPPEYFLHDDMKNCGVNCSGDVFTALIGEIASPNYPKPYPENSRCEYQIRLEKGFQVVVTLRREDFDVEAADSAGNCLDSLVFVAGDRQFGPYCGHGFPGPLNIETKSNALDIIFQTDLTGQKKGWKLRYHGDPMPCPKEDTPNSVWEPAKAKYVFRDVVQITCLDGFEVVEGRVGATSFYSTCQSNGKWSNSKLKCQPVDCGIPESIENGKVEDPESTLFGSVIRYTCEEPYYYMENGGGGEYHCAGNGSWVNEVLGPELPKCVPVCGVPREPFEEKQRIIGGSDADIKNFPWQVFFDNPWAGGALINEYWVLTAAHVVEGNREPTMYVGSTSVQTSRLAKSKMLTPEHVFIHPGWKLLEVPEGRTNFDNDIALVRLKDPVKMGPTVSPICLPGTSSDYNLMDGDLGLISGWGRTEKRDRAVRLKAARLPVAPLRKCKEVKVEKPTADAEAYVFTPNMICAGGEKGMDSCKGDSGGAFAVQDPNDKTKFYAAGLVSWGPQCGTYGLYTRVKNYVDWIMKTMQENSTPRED

A further data set has as its target T5, Human C2, P06681.
T5 chain: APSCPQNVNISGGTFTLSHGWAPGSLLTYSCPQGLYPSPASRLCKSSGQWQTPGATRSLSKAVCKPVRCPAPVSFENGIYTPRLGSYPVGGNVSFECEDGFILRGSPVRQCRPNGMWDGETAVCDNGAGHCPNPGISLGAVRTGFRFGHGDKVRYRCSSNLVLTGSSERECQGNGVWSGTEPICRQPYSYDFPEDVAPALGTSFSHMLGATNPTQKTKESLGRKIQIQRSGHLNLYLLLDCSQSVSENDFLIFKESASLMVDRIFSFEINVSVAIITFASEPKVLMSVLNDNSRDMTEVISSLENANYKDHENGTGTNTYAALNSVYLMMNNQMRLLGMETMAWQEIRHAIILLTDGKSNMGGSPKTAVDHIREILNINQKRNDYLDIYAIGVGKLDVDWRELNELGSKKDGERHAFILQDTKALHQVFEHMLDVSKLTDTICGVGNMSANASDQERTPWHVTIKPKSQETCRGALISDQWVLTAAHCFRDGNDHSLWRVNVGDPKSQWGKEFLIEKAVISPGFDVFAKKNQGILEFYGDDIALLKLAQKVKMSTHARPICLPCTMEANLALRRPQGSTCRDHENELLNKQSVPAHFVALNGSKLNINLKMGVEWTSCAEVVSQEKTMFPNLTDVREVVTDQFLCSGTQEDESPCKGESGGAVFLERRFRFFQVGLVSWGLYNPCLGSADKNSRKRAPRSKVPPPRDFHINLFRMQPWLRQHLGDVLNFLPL

Data set [4] concerns the target T6, P1 Arg oligopeptide of the competing oligopeptide substrate library.
T6 chain: HAAPRSANIQIAI

Data set [5] concerns the target T7, P1 Lys oligopeptide of the competing oligopeptide substrate library.
T7 chain: HAAPKSANIQIAI

Data set [6] concerns the target T8, alpha-2-macroglobulin, P01023.
T8 chain: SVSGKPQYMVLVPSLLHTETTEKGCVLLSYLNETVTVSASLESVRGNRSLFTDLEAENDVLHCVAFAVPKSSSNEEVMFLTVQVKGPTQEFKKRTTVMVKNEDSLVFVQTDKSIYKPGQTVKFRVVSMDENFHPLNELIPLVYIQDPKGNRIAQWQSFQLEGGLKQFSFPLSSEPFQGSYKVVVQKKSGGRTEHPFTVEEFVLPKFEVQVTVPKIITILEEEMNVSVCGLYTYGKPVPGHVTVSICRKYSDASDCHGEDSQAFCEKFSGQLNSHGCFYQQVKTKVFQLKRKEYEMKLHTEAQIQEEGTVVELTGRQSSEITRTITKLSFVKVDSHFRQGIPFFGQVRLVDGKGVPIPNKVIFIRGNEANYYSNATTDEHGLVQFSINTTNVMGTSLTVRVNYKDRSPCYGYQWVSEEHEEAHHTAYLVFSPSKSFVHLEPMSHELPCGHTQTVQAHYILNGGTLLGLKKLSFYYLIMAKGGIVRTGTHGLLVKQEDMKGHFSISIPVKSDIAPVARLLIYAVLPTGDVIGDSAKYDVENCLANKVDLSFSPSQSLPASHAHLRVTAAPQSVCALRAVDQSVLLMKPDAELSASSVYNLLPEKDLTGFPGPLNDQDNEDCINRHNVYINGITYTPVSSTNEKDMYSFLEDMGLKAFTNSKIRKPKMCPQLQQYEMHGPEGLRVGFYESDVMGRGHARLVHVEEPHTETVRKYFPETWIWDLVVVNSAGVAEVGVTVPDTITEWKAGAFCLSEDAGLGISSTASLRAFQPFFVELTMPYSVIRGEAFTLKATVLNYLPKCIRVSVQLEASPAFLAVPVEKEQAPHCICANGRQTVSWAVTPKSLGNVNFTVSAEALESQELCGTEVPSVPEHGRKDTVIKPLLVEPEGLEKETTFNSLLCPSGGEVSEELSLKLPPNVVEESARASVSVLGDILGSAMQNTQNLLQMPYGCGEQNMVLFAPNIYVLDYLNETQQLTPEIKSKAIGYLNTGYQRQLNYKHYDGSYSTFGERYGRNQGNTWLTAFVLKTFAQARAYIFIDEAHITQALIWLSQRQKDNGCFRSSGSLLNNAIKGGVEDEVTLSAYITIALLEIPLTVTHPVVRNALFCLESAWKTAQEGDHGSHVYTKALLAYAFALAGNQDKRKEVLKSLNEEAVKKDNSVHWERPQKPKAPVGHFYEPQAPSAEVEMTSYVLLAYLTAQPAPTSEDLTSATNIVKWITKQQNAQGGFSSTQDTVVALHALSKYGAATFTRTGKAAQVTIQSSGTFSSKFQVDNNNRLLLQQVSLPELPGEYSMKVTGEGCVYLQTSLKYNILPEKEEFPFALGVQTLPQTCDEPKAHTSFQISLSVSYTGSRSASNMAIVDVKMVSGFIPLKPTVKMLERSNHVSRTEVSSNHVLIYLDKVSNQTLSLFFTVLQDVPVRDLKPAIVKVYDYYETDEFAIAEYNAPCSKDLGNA

For a further data set, the target named is T9, C1-inhibitor, P05155.
T9 chain: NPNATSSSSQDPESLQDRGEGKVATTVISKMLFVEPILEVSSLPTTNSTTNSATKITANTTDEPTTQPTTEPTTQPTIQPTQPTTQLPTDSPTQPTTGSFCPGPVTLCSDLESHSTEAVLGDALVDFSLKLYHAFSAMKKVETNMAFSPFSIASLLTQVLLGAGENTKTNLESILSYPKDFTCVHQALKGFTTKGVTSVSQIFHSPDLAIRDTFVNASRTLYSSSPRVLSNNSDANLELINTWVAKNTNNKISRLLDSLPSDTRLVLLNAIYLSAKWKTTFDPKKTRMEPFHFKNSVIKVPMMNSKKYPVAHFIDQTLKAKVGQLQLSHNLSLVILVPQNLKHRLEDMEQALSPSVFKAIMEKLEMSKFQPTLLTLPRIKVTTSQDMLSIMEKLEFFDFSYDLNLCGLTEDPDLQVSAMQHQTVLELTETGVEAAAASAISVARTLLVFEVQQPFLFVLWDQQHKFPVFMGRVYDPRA
Nature of the data set: SDS-stable complex formation of 125I-labelled MASP fragment with C1-inhibitor, reducing SDS-PAGE, autoradiography and densitometry.

Chain of Human C4, P0C0L4 (P0C0L4 whole entry, looked up): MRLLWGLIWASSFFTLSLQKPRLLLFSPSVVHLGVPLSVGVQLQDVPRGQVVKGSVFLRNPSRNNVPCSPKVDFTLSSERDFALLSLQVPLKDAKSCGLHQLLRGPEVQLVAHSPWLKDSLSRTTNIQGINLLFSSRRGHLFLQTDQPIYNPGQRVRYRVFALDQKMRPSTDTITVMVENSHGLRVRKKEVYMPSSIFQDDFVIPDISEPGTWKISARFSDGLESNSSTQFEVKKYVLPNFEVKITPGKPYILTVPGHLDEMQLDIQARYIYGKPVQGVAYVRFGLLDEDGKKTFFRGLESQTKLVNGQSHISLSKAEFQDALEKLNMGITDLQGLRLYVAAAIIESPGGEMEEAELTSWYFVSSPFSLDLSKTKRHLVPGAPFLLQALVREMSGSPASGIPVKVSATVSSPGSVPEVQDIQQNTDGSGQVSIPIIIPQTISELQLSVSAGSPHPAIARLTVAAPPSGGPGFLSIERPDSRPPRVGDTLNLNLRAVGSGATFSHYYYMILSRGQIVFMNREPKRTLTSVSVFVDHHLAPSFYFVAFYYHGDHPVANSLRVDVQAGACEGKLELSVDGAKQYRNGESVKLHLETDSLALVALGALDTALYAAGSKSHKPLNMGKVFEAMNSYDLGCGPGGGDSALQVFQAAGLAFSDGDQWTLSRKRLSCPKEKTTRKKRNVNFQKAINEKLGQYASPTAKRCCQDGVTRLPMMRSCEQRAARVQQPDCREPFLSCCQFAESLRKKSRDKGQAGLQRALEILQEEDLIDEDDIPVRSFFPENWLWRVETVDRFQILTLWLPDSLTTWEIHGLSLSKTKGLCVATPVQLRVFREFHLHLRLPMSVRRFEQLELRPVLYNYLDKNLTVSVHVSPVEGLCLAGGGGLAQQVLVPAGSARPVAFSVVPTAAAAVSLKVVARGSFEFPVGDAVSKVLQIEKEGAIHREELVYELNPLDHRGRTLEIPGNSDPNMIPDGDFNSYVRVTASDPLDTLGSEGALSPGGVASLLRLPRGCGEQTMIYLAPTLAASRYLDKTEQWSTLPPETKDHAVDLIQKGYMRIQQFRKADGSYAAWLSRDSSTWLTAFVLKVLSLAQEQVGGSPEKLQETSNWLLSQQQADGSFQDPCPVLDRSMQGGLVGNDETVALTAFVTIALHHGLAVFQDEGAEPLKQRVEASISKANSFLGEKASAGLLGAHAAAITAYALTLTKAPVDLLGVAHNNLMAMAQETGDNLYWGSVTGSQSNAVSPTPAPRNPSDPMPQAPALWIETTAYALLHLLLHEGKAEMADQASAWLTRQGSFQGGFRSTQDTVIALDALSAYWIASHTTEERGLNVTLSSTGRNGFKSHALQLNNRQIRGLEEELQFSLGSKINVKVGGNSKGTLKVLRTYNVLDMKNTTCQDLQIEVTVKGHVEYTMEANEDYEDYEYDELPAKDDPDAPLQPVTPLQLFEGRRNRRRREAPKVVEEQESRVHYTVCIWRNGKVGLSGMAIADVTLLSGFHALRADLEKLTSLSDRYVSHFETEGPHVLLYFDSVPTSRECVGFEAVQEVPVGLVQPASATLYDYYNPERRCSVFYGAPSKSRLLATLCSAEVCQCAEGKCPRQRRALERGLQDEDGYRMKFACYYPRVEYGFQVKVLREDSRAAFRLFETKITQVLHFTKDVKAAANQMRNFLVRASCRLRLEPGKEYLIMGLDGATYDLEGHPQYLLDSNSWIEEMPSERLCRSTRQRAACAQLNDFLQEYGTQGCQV
Chain of 'dead' C3(NH3), P01024 (P01024 whole entry, looked up): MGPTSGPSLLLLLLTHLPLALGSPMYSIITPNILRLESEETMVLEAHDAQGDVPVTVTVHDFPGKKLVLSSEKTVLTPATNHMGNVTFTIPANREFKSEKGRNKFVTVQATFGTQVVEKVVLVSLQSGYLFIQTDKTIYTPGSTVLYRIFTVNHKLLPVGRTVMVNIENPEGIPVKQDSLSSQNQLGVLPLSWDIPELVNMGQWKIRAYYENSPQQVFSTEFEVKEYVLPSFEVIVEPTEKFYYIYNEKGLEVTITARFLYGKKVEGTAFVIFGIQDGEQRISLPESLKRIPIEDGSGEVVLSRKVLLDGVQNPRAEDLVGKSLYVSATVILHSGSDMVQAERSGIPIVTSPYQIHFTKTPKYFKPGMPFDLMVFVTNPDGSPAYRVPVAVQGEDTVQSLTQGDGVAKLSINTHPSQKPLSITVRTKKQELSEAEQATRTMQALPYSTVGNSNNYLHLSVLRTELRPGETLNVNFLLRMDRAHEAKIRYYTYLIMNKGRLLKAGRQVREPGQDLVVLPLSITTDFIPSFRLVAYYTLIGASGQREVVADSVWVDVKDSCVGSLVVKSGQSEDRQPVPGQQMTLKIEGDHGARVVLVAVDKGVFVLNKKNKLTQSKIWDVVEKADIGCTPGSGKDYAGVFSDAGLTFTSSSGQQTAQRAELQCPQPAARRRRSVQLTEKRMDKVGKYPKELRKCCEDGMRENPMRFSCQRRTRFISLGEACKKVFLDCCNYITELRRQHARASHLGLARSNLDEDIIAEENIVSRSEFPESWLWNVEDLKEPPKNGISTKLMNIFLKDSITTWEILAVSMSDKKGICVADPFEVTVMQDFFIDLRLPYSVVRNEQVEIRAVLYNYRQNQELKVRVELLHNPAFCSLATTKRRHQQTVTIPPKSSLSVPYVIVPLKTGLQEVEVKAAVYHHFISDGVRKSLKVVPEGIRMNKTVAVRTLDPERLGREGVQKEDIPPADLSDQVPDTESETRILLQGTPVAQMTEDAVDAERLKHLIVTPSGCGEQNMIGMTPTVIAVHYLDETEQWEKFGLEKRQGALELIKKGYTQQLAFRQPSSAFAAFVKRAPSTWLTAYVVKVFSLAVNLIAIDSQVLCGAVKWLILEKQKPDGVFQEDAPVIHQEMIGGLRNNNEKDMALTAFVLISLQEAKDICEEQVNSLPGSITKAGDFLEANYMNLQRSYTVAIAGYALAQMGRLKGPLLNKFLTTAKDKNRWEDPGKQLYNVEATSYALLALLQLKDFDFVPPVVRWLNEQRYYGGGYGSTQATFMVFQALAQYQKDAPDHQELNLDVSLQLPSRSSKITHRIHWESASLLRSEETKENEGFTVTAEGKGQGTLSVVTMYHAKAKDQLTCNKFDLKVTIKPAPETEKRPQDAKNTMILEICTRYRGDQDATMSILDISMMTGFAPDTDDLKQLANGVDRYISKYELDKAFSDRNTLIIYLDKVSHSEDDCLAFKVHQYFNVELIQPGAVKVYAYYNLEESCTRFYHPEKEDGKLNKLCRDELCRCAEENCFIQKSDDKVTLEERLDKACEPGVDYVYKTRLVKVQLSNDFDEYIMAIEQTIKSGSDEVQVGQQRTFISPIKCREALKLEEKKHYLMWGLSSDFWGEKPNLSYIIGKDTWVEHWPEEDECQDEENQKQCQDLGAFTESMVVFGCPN
Chain of 'live' C3 (C3 with an intact thiol ester bond), P01024 (P01024 whole entry, looked up): as above

B1: C1r CCP1-CCP2-SP fragment (wild-type) (protein)
chain 1: STQACPQPKTLDEFTIIQNLQPQYQFRDYFIATCKQGYQLIEGNQVLHSFTAVCQDDGTWHRAMPRCKIKDCGQPRNLPNGDFRYTTTMGVNTYKARIQYYCHEPYYKMQTRAGSRESEQGVYTCTAQGIWKNEQKGEKIPRCLPVCGKPVNPVEQRQR
chain 2: IIGGQKAKMGNFPWQVFTNIHGRGGGALLGDRWILTAAHTLYPKEHEAQSNASLDVFLGHTNVEELMKLGNHPIRRVSVHPDYRQDESYNFEGDIALLELENSVTLGPNLLPICLPDNDTFYDLGLMGYVSGFGVMEEKIAHDLRFVRLPVANPQACENWLRGKNRMDVFSQNMFCAGHPSLKQDACQGDSGGVFAVRDPNTDRWVATGIVSWGIGCSRGYGFYTKVLNYVDWIKKEMEEED
Take B1: the “cleavage of 'dead' C3 (control)” value with 'dead' C3(NH3), P01024 is reported as “we observed no cleavages of either 'live' or 'dead' C3”. In data set [1], the “cleavage of 'live' C3 (control)” value is “we observed no cleavages of either 'live' or 'dead' C3”. The kcat/KM, cleavage of S654A zymogen in data set [2] was found to be 6200 s^-1M^-1; in data set [3], 15900 s^-1M^-1; with C1r SP S654A, P00736 it was 45000 s^-1M^-1. Besides, in the data set with Proenzyme C1s, P09871, the kcat/KM, C1s cleavage stood at 58000 s^-1M^-1.

B2: MASP-2 CCP1-CCP2-SP fragment (protein)
chain 1: IHYTSTAQPCPYPMAPPNGHVSPVQAKYILKDSFSIFCETGYELLQGHLPLKSFTAVCQKDGSWDRPMPACSIVDCGPPDDLPSGRVEYITGPGVTTYKAVIQYSCEETFYTMKVNDGKYVCEADGFWTSSKGEKSLPVCEPVCGLSARTTGGR
chain 2: IYGGQKAKPGDFPWQVLILGGTTAAGALLYDNWVLTAAHAVYEQKHDASALDIRMGTLKRLSPHYTQAWSEAVFIHEGYTHDAGFDNDIALIKLNNKVVINSNITPICLPRKEAESFMRTDDIGTASGWGLTQRGFLARNLMYVDIPIVDHQKCTAAYEKPPYPRGSVTANMLCAGLESGGKDSCRGDSGGALVFLDSETERWFVGGIVSWGSMNCGEAGQYGVYTKVINYIPWIENIISDF
As for B2, the kcat/KM, cleavage of C3(NH3) with 'dead' C3(NH3), P01024 was 3300 M⁻¹ s⁻¹. In addition, the kcat/KM, cleavage of live C3 in data set [1] is 350 M⁻¹ s⁻¹. Further, in the data set with Human C2, P06681, the KM, C2 cleavage worked out at 4 µM; the kcat, C2 cleavage came out at 1.9 s⁻¹; the kcat/KM, C2 cleavage worked out at 500000 M⁻¹ s⁻¹. Moreover, in the data set with Human C4, P0C0L4, the KM, C4 cleavage stood at 1.6 µM; the kcat, C4 cleavage amounted to 0.9 s⁻¹; the kcat/KM, C4 cleavage was 550000 M⁻¹ s⁻¹. Moreover, in data set [4], the “cleavage in the competing oligopeptide substrate library” value is “both enzymes cleave oligopeptides that contain either Arg or Lys at their P1 positions” and the “digestion of the P1 Arg oligopeptide at 15 min” value is “MASP-2 cleaved less than 20% of the substrate”. Further, the “cleavage in the competing oligopeptide substrate library” value in [5] is reported as “both enzymes cleave oligopeptides that contain either Arg or Lys at their P1 positions”. In addition, the “molar excess needed to abolish cleavage of complement substrates” value in [6] is “or with a large molar excess (40 fold) of alpha-2-macroglobulin”. In the data set with C1-inhibitor, P05155, this protein yielded a kobs (pseudo-first order rate of reaction at [C1-inh] = 350 nM) of 0.0078 s⁻¹.

For the origin of these results see US20090042248.
